Reference: article PMC5148588

Biological target: peptide containing the sequence LAETG

B1: SrtE1^ΔN, extracellular domain of sortase E1 from Streptomyces coelicolor (residues T162-S352), Q9XA14 162-352 (enzyme)
chain: TNVRAHAQANQAASNLQDDWANGKRSPGSFEPGQGFALLHIPKLDVVVPIAEGISSKKVLDRGMVGHYAEDGLKTAMPDAKAGNFGLAGHRNTHGEPFRYINKLEPGDPIVVETQDKYFVYKMASILPVTSPSNVSVLDPVPKQSGFKGPGRYITLTTCTPEFTSKYRMIVWGKMVEERPRSKGKPDALVS
In the case of B1, the hydrolysis of the peptide at the T-G bond, in vitro HPLC assay (area of the N-terminal product peak); preference against the LPETG peptide is reported as 2 fold.
